Type in all cases: cell-based, mouse
The test system of experiment [1] is bone marrow-derived macrophages of C57BL/6 and C3H/HeN mice. Kind of experiment: TNFα production by bone marrow-derived macrophages with wild-type Tlr4 (sandwich ELISA). In general terms: ELISA stands for enzyme-linked immunosorbent assay.
Experiment [2] relates to bone marrow-derived macrophages of C3H/HeJ mice (mutant Toll-like receptor 4). As to the kind of experiment: TNFα production by bone marrow-derived macrophages with mutant Tlr4 (sandwich ELISA).
Experiment [3] deals with bone marrow-derived macrophages of C57BL/6 and C3H/HeN mice. As to the kind of experiment: NO (nitrite) production by bone marrow-derived macrophages with wild-type Tlr4 (Griess reaction). Particulars: 24 h. A general note: Griess reagent forms a coloured azo dye with nitrite.
Experiment [4] relates to bone marrow-derived macrophages of C3H/HeJ mice (mutant Toll-like receptor 4). As to the kind of experiment: NO (nitrite) production by bone marrow-derived macrophages with mutant Tlr4 (Griess reaction).

B1: hsp60: Recombinant human hsp60 obtained from StressGen Biotechnologies (protein)
chain: AKDVKFGADARALMLQGVDLLADAVAVTMGPKGRTVIIEQSWGSPKVTKDGVTVAKSIDLKDKYKNIGAKLVQDVANNTNEEAGDGTTTATVLARSIAKEGFEKISKGANPVEIRRGVMLAVDAVIAELKKQSKPVTTPEEIAQVATISANGDKEIGNIISDAMKKVGRKGVITVKDGKTLNDELEIIEGMKFDRGYISPYFINTSKGQKCEFQDAYVLLSEKKISSIQSIVPALEIANAHRKPLVIIAEDVDGEALSTLVLNRLKVGLQVVAVKAPGFGDNRKNQLKDMAIATGGAVFGEEGLTLNLEDVQPHDLGKVGEVIVTKDDAMLLKGKGDKAQIEKRIQEIIEQLDVTTSEYEKEKLNERLAKLSDGVAVLKVGGTSDVEVNEKKDRVTDALNATRAAVEEGIVLGGGCALLRCIPALDSLTPANEDQKIGIEIIKRTLKIPAMTIAKNAGVEGSLIVEKIMQSSSEVGYDAMAGDFVNMVEKGIIDPTKVVRTALLDAAGVASLLTTAEVVVTEIPKEEKDPGMGAMGGMGGGMGGGMF
For B1, the “time of peak levels of secreted TNFα” value in experiment [1] (C3H/HeN macrophages, 10 μg/ml hsp60) lay in the range of 6 to 12 h. Besides, the TNFα secretion result in experiment [1] (C57BL/6 and C3H/HeN macrophages, LPS 10 ng/ml, hsp60 10 μg/ml, 6 h) is on record as “rapid secretion of large amounts of TNFα”. For the same molecule, the TNFα response result in experiment [2] (C3H/HeJ macrophages, LPS 10 ng/ml, hsp60 10 μg/ml, oligonucleotides 30 μg/ml, 6 h) is “no response”. Also, in experiment [2] (C3H/HeJ macrophages, even at ten times higher hsp60 levels, 6 h), the “TNFα response, dose dependence” value was “no such response”. For the same molecule, the “TNFα production, time course” value in experiment [2] (Tlr4 defective macrophages, 10 μg/ml hsp60, observation period of 72 h) is on record as “absent”. The “hsp60 concentration required for eliciting NO” value in experiment [3] is 3 µg/mL. Further, the “nitrite levels on increasing the hsp60 concentration tenfold” value in experiment [3] (C3H/HeN macrophages) was “about five times higher nitrite levels”. In addition, the NO production result in experiment [3] (C57BL/6 and C3H/HeN macrophages, LPS 10 ng/ml, hsp60 10 μg/ml) is “same outcome”; in experiment [4] (C3H/HeJ (Tlr4 defective) macrophages, LPS 10 ng/ml, hsp60 10 μg/ml, 24 h) it was “complete lack of a nitric oxide response”. The “NO production, time course” value in experiment [4] (C3H/HeJ macrophages, 10 μg/ml hsp60, up to 72 h) is on record as “no indication of NO production”. For the same molecule, in experiment [4] (Tlr4 defective macrophages, 24 h), the “NO response on increasing the hsp60 concentration tenfold” value is listed as “completely refractory”.

Source of the values: US20040022777A1, “Fragments and antagonists of heat shock protein 60” (priority 1999, published 2004).
